This is an account of results in publication PMC6692503, “Short- and Long-Term Effects of UVA on Arabidopsis Are Mediated by a Novel cGMP Phosphodiesterase” (Current Biology, 2019).

Substrate in the data set: [H][C@@]12COP(=O)(O)O[C@@]1([H])[C@@H](O)[C@H](n1cnc3c(=O)[nH]c(N)nc31)O2
The data set is described as follows: phosphodiesterase assay kit (Biomol Green phosphate detection), Michaelis-Menten plot. The class given is biochemical, Arabidopsis thaliana. The conditions noted are these: 25 °C, 60 min, GST fusion, Figure 3 legend prints 0.2587 μM, substrate of the plot not named in the legend.

B1: CN-PDE1 (AtCN-PDE1, PDE1, AtPDE1) (Arabidopsis thaliana) (protein)
chain: MAAKTMRKAEELVEKAMKGNDASHDAWHVWRVRDLALSIAREEGLSSNSDSMEIVELAALLHDIGDYKYIRDPSEEKLVENFLDDEGIEETKKTKILTIINGMGFKDELAGVALCESLPEFGVVQDADRLDAIGAIGIARCFTFGGSRNRVLHDPEIKPRTELTKEQYIKREEQTTINHFHEKLLKLKKLMKTEAGKRRAEKRHKFMEEYLKEFYEEWDGST
Consider B1, for which the Km (commonly the substrate concentration at which the rate is half of its maximum) worked out at 0.259 µM.
